Reference: publication PMC3030368

T1: Nab3 RRM (Saccharomyces cerevisiae, UniProt P38996 321-415)
T1 sequence: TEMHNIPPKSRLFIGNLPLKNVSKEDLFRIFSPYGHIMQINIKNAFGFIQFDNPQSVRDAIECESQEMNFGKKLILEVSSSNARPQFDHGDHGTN

T2: Nrd1 RRM (UniProt P53617 340-410)
T2 sequence: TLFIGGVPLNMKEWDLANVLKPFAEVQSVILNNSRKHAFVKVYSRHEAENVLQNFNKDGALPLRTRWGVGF


Key:
Nab3 RRM = target: T1, Nab3 RRM; experiment: fluorescence anisotropy
Nrd1 RRM = target: T2, Nrd1 RRM; experiment: fluorescence anisotropy

Binder | binding signal (Nab3 RRM) | Kd (Nrd1 RRM) [µM]
UCUU (ssRNA) [UCUU (FA)] | ~10 fold weaker than snR47 (1 order of magnitude; Kd only in figure) | –
GUAA (ssRNA) | > 6 fold lower affinity than UCUU | 66 ± 1
